This note sets out measurements from patent publication US20060040324A1.

The target in assay [1] is GP IIb/IIIa platelet receptor (integrin heterodimeric glycoprotein IIb/IIIa) (human) (UniProt P08514). The assay can be described thus: radioligand saturation binding to fresh human blood clots.
The target is the same in assay [2]. The assay can be described thus: radioligand saturation binding to human blood clots, carrier-free preparation.
Assay [3] shares this target. Kind of assay: radioligand saturation binding, ADP-activated formalin-fixed human platelets, filtration.
Assay [4] shares this target. The assay can be described thus: radioligand saturation binding, ADP-activated human platelets in platelet rich plasma, filtration.
For assay [5] the target is unchanged. The assay can be described thus: competition with trace 99mTc-labeled peptide on activated formalin-fixed human platelets.
Assay [6] deals with tuftsin receptor (human). The assay can be described thus: radioligand saturation binding, fresh and formalin-fixed HL-60 cells, filtration.
Assay [7] has as its target tuftsin receptor (human). Kind of assay: radioligand saturation binding, fresh and formalin-fixed human PMN leukocytes, filtration.
The target in assay [8] is tuftsin receptor (human). The assay can be described thus: competition with 99mTc-labeled peptide on HL-60 cells.
Assay [9] deals with tuftsin receptor (human). The assay can be described thus: competition with trace 99mTc-labeled peptide on formalin-fixed human PMN leukocytes.
For assay [10], the target named is tuftsin receptor (human). The assay can be described thus: binding to human leukocytes.
Assay [11] concerns the target tuftsin receptor (human). The assay can be described thus: cell-based or functional assay.
Assay [12] deals with tuftsin receptor (human). The assay can be described thus: competition with 99mTc-labeled peptide on HL-60 cells. The source holds these as a separate data set.

Where no end group is shown, it is not given here. [ ]: non-standard residue; d: D form.

Chain of UniProt P08514 (P08514 32-1039, chain 1 of 2): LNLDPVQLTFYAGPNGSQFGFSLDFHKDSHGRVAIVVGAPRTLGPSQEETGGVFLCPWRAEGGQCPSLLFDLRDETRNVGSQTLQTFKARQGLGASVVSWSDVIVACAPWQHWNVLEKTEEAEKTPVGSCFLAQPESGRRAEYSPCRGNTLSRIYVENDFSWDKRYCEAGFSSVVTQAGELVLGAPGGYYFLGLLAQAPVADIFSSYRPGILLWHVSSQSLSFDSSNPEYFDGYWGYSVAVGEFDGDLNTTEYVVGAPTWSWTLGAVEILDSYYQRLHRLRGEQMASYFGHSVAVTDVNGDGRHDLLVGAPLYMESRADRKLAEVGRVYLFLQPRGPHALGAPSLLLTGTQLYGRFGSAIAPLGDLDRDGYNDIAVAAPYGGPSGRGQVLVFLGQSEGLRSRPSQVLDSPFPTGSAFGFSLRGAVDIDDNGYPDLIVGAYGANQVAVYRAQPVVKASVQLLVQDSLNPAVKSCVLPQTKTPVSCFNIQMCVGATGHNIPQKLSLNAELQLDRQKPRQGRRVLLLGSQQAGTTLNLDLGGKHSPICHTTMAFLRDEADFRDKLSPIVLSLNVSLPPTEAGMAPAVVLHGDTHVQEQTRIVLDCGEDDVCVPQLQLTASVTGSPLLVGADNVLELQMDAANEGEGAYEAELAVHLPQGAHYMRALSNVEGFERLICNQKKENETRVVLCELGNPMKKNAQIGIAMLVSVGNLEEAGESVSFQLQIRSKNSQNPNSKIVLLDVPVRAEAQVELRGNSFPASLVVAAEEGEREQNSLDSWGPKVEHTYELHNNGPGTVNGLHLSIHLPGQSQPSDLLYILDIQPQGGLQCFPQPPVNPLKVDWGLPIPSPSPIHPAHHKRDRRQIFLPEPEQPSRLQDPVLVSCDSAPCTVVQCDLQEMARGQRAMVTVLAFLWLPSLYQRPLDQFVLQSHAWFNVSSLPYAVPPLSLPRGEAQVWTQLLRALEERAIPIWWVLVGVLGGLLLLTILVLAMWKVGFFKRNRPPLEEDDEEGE
Chain of UniProt P08514 (P05106 27-788, chain 2 of 2, further chain): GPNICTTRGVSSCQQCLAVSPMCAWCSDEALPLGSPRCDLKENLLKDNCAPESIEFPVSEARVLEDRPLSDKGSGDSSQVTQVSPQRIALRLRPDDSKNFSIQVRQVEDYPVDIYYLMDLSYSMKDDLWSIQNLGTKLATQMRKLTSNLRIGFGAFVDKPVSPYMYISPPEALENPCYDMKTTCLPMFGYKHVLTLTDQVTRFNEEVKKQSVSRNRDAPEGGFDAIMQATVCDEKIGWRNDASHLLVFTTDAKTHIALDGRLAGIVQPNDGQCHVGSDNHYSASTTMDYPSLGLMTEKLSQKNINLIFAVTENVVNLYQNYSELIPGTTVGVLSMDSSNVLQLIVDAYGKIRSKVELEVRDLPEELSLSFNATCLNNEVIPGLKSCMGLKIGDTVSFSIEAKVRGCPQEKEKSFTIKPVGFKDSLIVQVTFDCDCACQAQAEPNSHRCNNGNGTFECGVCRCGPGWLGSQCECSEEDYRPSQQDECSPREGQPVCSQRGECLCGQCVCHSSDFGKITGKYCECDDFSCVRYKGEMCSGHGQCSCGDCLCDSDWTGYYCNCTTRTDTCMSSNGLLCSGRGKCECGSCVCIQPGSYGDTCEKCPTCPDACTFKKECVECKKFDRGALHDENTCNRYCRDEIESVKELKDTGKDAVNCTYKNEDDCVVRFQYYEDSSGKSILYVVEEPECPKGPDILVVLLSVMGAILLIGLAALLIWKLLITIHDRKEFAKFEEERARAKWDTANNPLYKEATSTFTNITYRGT

Turning to “^99mTc-[D-Arg-Gly-D-Cys]-β-Ala (peptide)”, the Kd in assay [1], in assay [2], in assay [3] and in [4] was 5 to 10 nM each time.
For ^99Tc-[D-Arg-Gly-D-Cys]-β-Ala (peptide), the half-inhibitory concentration (IC50) in assay [5] lay within 5 to 10 nM.
For the molecule “^99mTc-Thr-[D-Lys-Gly-D-Cys]-Arg (peptide)”, the Kd in assay [6] and in assay [7] was 1 to 5 nM each time.
With “^99Tc-Thr-[D-Lys-Gly-D-Cys]-Arg (peptide)”, the IC50 in assay [8] and in [9] was 1 to 5 nM each time.
“^99mTc-labeled PEG8000-D-Arg-Gly-D-Cys-β-Ala (peptide)” had a Kd in assay [1] of 5 to 20 nM.
For T[dK]G[dC]R [Thr-D-Lys-Gly-D-Cys-Arg (unlabeled, not complexed to a metal ion)], the dissociation constant (Kd) in assay [10] was determined as 100000 nM. In [9], this molecule yielded an IC50 of 2000 to 5000 nM.
TKPR [natural tuftsin Thr-Lys-Pro-Arg] yielded a nitroblue tetrazolium dye reduction (hexose monophosphate shunt activity) in human PMN granulocytes: concentration of maximal stimulation in assay [11] of 100 nM. The half-inhibitory concentration (IC50) in assay [12] and in assay [9] was 100 nM in each case.
In assay [11], T[dK]G[dC]R (also: ReO[V] complexed to D-Lys-Gly-D-Cys) [Thr-ReO[V]-[D-Lys-Gly-D-Cys]-Arg] returned a nitroblue tetrazolium dye reduction (hexose monophosphate shunt activity) in human PMN granulocytes: concentration of maximum stimulation of 1 to 5 nM and a stimulation of phagocytosis of heat inactivated yeast cells by human PMN granulocytes: concentration of maximal stimulation of 1 nM.

The term Kd denotes the constant that tells how readily two partners part at equilibrium. A high value points to lower affinity. The term IC50 denotes the point on the concentration scale where inhibition reaches its midpoint. The low end stands for inhibition by little substance, the high end for a need for much substance.
